The record followed here is patent US20120141373A1 (University of California, published 2012).

Changes are numbered by the printed parent chain.

Experiment [1] deals with T1, human MT-SP1 protease domain (human, UniProt Q9Y5Y6 615-855).
T1 construct: domain: protease domain; also called hMT-SP1; matriptase
T1 sequence (looked up): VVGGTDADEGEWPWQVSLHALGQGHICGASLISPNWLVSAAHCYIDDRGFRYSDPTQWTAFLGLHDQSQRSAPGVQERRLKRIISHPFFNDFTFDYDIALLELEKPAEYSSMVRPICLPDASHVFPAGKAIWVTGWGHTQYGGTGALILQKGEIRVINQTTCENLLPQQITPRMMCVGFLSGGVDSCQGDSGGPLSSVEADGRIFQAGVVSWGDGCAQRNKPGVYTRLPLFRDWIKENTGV
The experiment is described as follows: steady state kinetics, probably pM (the same paragraph prints 720 µM for what Table 3 gives as 0.72 nM).
Description: (§1) Briefly, all reactions were carried out in 50 mM Tris, pH 8.8, 50 mM NaCl, 0.01% Tween-20 in 96-well, medium binding, flat-bottomed plate (Corning), and cleavage of substrate (Spectrazyme-tPA (hexahydrotyrosyl-Gly-Arg-pNA), American Diagnostica, Greenwich, Conn.) was monitored in a UVmax Microplate Reader (Molecular Devices Corporation, Palo Alto, Calif.). […] Reactions to determine the IC₅₀'s were carried out by incubating 0.2 nM enzyme with inhibitor for >5 hours to assure steady-state behavior of the system. […] Inhibitor activity was also measured using the chromogenic substrate Spectrafluor tPA (American diagnostica, Inc.). […] Kaleidagraph 3.6 was used to fit all graphs and equations (Synergy Software, Reading, Pa.).

Experiment [2] has as its target T2, epithin (mouse, UniProt P56677 615-855, limits assumed).
T2 construct: also called mouse homologue of MT-SP1; A11 (Epithin)
T2 sequence (looked up): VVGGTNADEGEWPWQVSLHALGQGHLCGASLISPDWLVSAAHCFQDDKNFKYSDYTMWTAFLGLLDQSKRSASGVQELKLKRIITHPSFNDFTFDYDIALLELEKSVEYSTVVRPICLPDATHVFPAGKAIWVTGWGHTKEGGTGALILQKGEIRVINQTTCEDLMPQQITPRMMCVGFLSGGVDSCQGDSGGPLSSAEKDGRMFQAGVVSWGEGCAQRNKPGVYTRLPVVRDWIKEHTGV
Put plainly: steady state kinetics, inhibition of epithin.

For experiment [3], the target named is T1, human MT-SP1 protease domain. The experiment is described as follows: steady state kinetics.
Description: as §1
For experiment [4] the target is unchanged. Put plainly: steady state kinetics, tight-binding inhibition of Spectrazyme-tPA cleavage.
Description: as §1

B1: E2 Fab (Fab, V domains shown)
VH: QVQLVQSGGGLVKPGGSLRLSCAASGFTFSSYAMSWVRQAPGKGLEWVSAISGSGGSTYYADSVKGRFTISRDNSKNTLYLQMSSLRAEDTAVYYCARPYLTYPQRRGPQNVSPFDNWGQGTMVTVSS
VL: DIQMTQSPSSLSASVGDRVTITCRASQGISSYLAWYQQKPGKAPKLLIYAASSLQSGVPSRFSGSGSGTDFTLTISSLQPEDFAVYYCQQHGNLPYTFGDGTKVEIKR
notes: also called anti-MT-SP1 Fab antibody E2
In experiment [1], B1 showed a Ki of 12000 nM. This lies in the double-digit micromolar range.

B2: A11 Fab (Fab, V domains shown)
VH: EVQLVQSGGGLVKPGGSLRLSCAASGFTFSSYAMSWVRQAPGKGLEWVSAISGSGGSTYYADSVKGRFTISRDNSKNTLYLQMSSLRAEDTAVYYCVKDLGIAARRFVSGAFDIWGQGTMVTVSS
VL: EIVLTQSPGTLSLSPGERATLSCRASQSVSSSYLAWYQQKPGQAPRLLIYGASTRATGIPARFSGSGSGTDFTLTINSLEPEDFAVYYCQQRSNWPPGYTFGQGTKVEIKR
notes: Human Fab from a naive phage library, VH3 heavy chain and Vkappa3 light chain; The Fab was made in E. coli for biochemical assays and in T. reesei for crystallisation; also called Fab A11; recombinant A11 Fab
B2 returned a Ki in experiment [2] of 87 nM.

B3: A11 H R100aA (Fab, V domains shown)
VH: B2 VH with R105A
VL: B2 VL
notes: also called ArgH100aAla; A11 mutant ArgH100aAla
On to B3, for which the “fold change of KI over wild-type A11” value in experiment [3] was around 2 fold. In addition, the Ki in experiment [4] was 1.5 nM.

B4: A11 H R100bK (Fab, V domains shown)
VH: B2 VH with R106K
VL: B2 VL
notes: also called ArgH100bLys; A11 mutant ArgH100bLys
On to B4, for which the “fold change of KI over wild-type A11” value in experiment [3] was determined as 250 fold. Besides, in experiment [4], the Ki was 180 nM.

B5: A11 H R100bA (Fab, V domains shown)
VH: B2 VH with R106A
VL: B2 VL
notes: also called ArgH100bAla; A11 mutant ArgH100bAla
In the case of B5, the “fold change of KI over wild-type A11” value in experiment [3] was determined as 250 fold. In addition, the Ki in experiment [4] was found to be 180 nM.
